# Laboratory results published in patent publication US10745461B2, “Pulsed introduction of low-dose RANKL as a therapy for diet-induced atherosclerosis” (Saint Louis University, priority 2015, dated 2020).
# Entries after “also recorded” stand apart in the source; their conditions may differ.
# B1: receptor activator of NF-κB ligand (protein, UniProt O35235 139-316, looked up)
# Tumor necrosis factor ligand …: FSGAPAMMEGSWLDVAQRGKPEAQPFAHLTINAASIPSGSHKVTLSSWYHDRGWAKISNMTLSNGKLRVNQDGFYYLYANICFRHHETSGSVPTDYLQLMVYVVKTSIKIPSSHNLMKGGSTKNWSGNSEFHFYSINVGGFFKLRAGEEISIQVSNPSLLDPDQDATYFGAFKVQDID
# modifications: GST tag
# Legend:
# [1] = test system: FoxP3+ CD8 T-cells (TcREG); assay: In vivo TcREG induction: GFP negative CD8 T-cells adoptively transferred into OT-I Rag-/- mice
# Description: FIGS. 1A, 1B and 1C indicate that TcREG are induced by activated osteoclasis. […] In the absence of RANK L treatment, very low level of conversion was observed after three days. […] ZA was administered intravenously one week prior to adoptive transfer of CD8 T-cells.
# It was first determined the dose of RANKL that produced the maximal number FoxP3^+ CD8 T-cells in the bone marrow. RANKL was administered into FoxP3-GFP reporter mice at various doses for two consecutive days. Fifty hours after first dose, the mice were sacrificed and the numbers of CD8 T-cells that were GFP positive cells in the bone marrow were measured. […] The increased levels of FoxP3 in the bone marrow could either be due to recruitment of TcREG to the bone marrow or induction of FoxP3 expression in cells that were FoxP3 negative. To test for induction FACS sorted the GFP negative population of CD8 (Thy 1.2+ that were CD44 negative or naïve) from the spleens and bone marrow to high purity (FIG. 1C first panel) and adoptively transferred them into congenically marked (Thy 1.1) OT-I Rag^−/− mice. […] In the absence of RANKL administration low levels […] CD8 T-cell were detected (FIGS. 1B and C second panel), but RANKL administration (0.125 mg/kg) yielded ˜1% […] Thy 1.2 T-cells (FIGS. 1B and 1C third panel). […]
# ovariectomized mice [2] = assay: Pulsed versus continuous (ALZET pump) RANKL in OVX mice; type: in vivo
# Description: FIGS. 10A through 10E show the effect of delivering RANKL in pulses as opposed to a continuous exposure leads to its antiresorptive effect. 12 week old mice were treated either as sham-operated or OVX using pumps or pulsed. Two weeks post-surgery ALZET® pumps were implanted in the intraperitoneal cavity that contained either PBS or RANKL as indicated in the plots above. All groups were pulsed with equivalent dose of RANKL (0.125 mg/kg, pulsed twice 24 hrs. apart) or PBS as indicated in the plots. […] In FIG. 10B, Quantification across groups (6 mice/group).
# ovariectomized mice [3] = assay: Kinetics of a single low-dose RANKL treatment followed by serum CTX; type: in vivo; conditions: twice 24 hrs apart, 2 weeks post-OVX
# Description: Food was withdrawn 6 to 10 hours prior to bleeding. Peripheral blood (100 to 200 μL) obtained via sub-mandibular vein, was allowed to clot for 2 hours at room temperature and serum collected by spinning down the cell pellet. Serum C-terminal telopeptide of type 1 collagen (serum CTX) was measured using ELISA according to the manufacturer's instructions (Immunodiagnostic Systems, Plc)
# (§1) To assess the kinetics of a single treatment, C57BL/6J ovariectomized mice were treated with low-dose RANKL (administered twice 24 hrs apart, 2 weeks post-OVX) and then followed by serum CTX assay. […] In FIG. 11B, to assess whether multiple treatments are effective, sham-operated (Sx) or OVX 12-week old C57BL/6J mice were treated with low-dose RANKL (0.125 mg/kg) once per month or once with the bisphosphonate Zoledronate (ZA; 3 weeks post-OVX). 120 days post-OVX peripheral blood obtained by mandible bleeds was treated to remove RBCs (BD Pharmalyse) then 1 to 3×10^6 cells were plated per well in triplicate (6 mice/group). Media was collected after 36 hours of culturing and cytokine levels quantitated by multiplexed ELISA (Millipore).
# TNFα and IL17A = assay: Once per month low-dose RANKL or Zoledronate: cytokines from peripheral blood cells by multiplexed ELISA; type: in vivo, mice; conditions: 120 days post-OVX; RANKL 0.125 mg/kg once per month; ZA once 3 weeks post-OVX
# Description: as §1
# IL-17A and TNFα = assay: WD-fed ovariectomized WT mice: TcREG and IL-17A/TNFα production by peripheral blood T-cells; type: in vivo; conditions: for peripheral blood T-cells that express TNFα and/or IL-17A (flow cytometry) / IL-17A and TNFα produced by freshly isolated peripheral blood cells (ELISA): WD-fed OVX WT mice
# Text: It has been previously shown that low-dose RANKL (IdRANKL) induces TcREG in bone marrow. We postulated that induction of TcREG might be atheroprotective as it protects against osteoporosis in ovariectomized mice. To test that proposal, we first tested the ability of IdRANKL to modulate the systemic availability of proinflammatory cytokines. Thus, a new group of WT mice were fed WD, and subjected to sham or OVX surgeries, then dosed with saline or IdRANKL (two i.p. injections 3 and 7 weeks after OVX). […] We then, measured the ability of freshly isolated T-cells from peripheral blood to produce IL-17A and TNFα. […] Zoledronate is a bisphosphonate that is used clinically to prevent bone resorption (by suppressing osteoclasts). […] Without being limited to any particular theory of operation, we hypothesize that these cells contribute to postmenopausal comorbidities such as atherosclerosis and osteoporosis, and that immunosuppressing therapies such as pulsed IdRANKL will have cardio- and osteo-protective effects.
molecule,measurement,setting,value
B1,TcREG induction by RANKL,"[1]; 0.125 mg/kg, 50 hrs after RANKL treatment, 3 days after T-cell transfer",robustly induced TcREG
same,GFP+ Thy 1.2 T-cells after RANKL administration,"[1]; RANKL 0.125 mg/kg, OT-I Rag-/- recipients",~1%
same,bone resorption,ovariectomized mice [2]; continuous delivery via osmotic pumps,led to increased bone resorption
same,TcREG induction,"ovariectomized mice [2]; continuous exposure by pump, identical dose",did not induce TcREG; also recorded: No TcREG induction is observed
same,Bone volume (BV/TV),ovariectomized mice [2]; delivered by pump,decreased
same,Bone volume (BV/TV),ovariectomized mice [2]; pulsed,restored to levels observed in sham-operated mice
same,TEFF cells,ovariectomized mice [2]; pulsed,decrease in TEFF cells was only observed in mice pulsed with RANKL
same,bone resorption,ovariectomized mice [2]; pulsed,decreased levels of bone resorption were observed
same,TcREG induction,"ovariectomized mice [2]; pulsed, 0.125 mg/kg twice 24 hrs apart",induced TcREG
same,time a single treatment is effective to limit bone loss / bone resorption,ovariectomized mice [3]; listed as low dose RANKL,approximately 28 days
same,time a single treatment is effective to limit bone loss / bone resorption,ovariectomized mice [3]; listed as low-dose RANKL,up to 30 days
same,TNFα and IL17A produced by peripheral blood cells (immunosuppression),TNFα and IL17A,immunosuppressive
same,peripheral blood T-cells that express TNFα and/or IL-17A (flow cytometry),IL-17A and TNFα,abrogates OVX-induced increase in peripheral blood T-cells that express TNFα and/or IL-17A
same,IL-17A and TNFα produced by freshly isolated peripheral blood cells (ELISA),IL-17A and TNFα; listed as IdRANKL,"abrogated the ability of circulating T-cells to secrete IL-17A, TNFα, or both"
same,peripheral blood T-cells that express TNFα and/or IL-17A (flow cytometry),IL-17A and TNFα; listed as IdRANKL,prevented such increase
same,IL-17A and TNFα produced by freshly isolated peripheral blood cells (ELISA),IL-17A and TNFα; listed as low-dose RANKL,abrogates OVX-induced increase in TNFα and IL-17A expression
same,numbers of CD8+ FoxP3+ cells in the bone marrow,"IL-17A and TNFα; WD-fed WT mice, two i.p. injections 3 and 7 weeks after OVX",increased
